Patent US20240368295A1 (SUTRO BIOPHARMA, published 2024)

Experiments:
[1] = target: T1, BCMA on BCMA-positive NCI-H929, ARP-1 and U266B1 cells (human, UniProt Q02223 1-184); assay: FACS, NCI-H929 cells
T1 construct: they are human cell lines; also called B-cell maturation antigen; TNFRSF17
T1 sequence: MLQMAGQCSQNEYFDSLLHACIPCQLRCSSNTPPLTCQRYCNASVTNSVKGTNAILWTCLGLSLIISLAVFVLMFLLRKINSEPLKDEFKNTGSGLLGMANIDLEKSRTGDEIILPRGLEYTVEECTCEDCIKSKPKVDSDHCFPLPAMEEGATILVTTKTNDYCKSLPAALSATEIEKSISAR
Description: (§1) Variants for which sufficient protein was purified in secondary screening were tested in a fluorescence-activated cell sorting (FACS) cell-binding assay. […] 6-12 point dilutions of anti-BCMA variants starting from concentrations of about 100-200 nM antibody were dispensed into each well using a BioMekFX (Beckman Coulter). Cells were then incubated on ice for 1 hr, washed with FACS buffer and incubated for 1 hr on ice with […] FACS buffer containing […] Alexa647-conjugated Goat Anti-Human IgG dispensed using BioMekFX (Beckman Coulter). Cells were then washed 2× with FACS buffer and fixed for 10 minutes in […] PBS with 2% PFA prior to fluorescence detection. Samples were acquired using a Beckton Dickinson LSRII FACS. Geometric Mean Fluorescence Intensity of BCMA antibody binding was analyzed using FlowJo® software (Trec Star, Inc.).

[2] = target: cynomolgus BCMA on 293T-cynoBCMA cells (cynomolgus, UniProt Q02223 1-184 (human entry)); assay: FACS, 293T-cynoBCMA cells
Description: as §1

[3] = target: T1, BCMA on BCMA-positive NCI-H929, ARP-1 …; assay: cell-based or functional assay

Chain of cynomolgus BCMA on 293T-cynoBCMA cells (Q02223 other isoform, or with tags, fused parts or gaps): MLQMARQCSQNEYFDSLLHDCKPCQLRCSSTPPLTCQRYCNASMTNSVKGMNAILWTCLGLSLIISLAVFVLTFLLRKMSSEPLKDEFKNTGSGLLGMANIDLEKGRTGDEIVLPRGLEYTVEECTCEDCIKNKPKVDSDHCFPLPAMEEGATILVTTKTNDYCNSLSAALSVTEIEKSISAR

B1: SRP2288-A03 (antibody, IgG1, V domains shown)
VH: EVQLVESGGGLVQPGGSLRLSCAASGFNINNSWIHWVRQAPGKGLEWVGWIYPYIGFTEYADSVKGRFTISADTSKNTAYLQMNSLRAEDTAVYYCARDYDLRYLTGVLDYWGQGTLVTVSS
VL: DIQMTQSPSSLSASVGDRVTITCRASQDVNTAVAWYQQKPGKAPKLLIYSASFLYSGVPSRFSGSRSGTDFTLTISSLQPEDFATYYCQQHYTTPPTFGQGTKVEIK
notes: IgG1 with trastuzumab light chain, His/FLAG-tagged, cell-free expressed; also called Antibody 15
Bmax (MFI) [1]: 16300 MFI | Bmax (MFI) [2]: 46800 MFI | U266B1, SC225-conjugated 2° antibody cell killing, EC50 [3]: 2.3 nM | U266B1, SC225-conjugated 2° antibody cell killing, Span [3]: 42%

B2: SRP2291-D07 (antibody, IgG1, V domains shown)
VH: EVQLVESGGGLVQPGGSLRLSCAASGFNIKDTYIHWVRQAPGKGLEWVGVISPYDGYTEYADSVKGRFTISADTSKNTAYLQMNSLRAEDTAVYYCAHDFYDRYSTYVLDYWGQGTLVTVSS
VL: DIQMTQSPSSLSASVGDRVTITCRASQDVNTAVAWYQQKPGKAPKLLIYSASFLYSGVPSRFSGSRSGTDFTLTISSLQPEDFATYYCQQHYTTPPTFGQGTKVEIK
notes: IgG1 with trastuzumab light chain, His/FLAG-tagged, cell-free expressed; also called Antibody 26
Bmax (MFI) [1]: 28700 MFI | Bmax (MFI) [2]: 67900 MFI | U266B1, SC225-conjugated 2° antibody cell killing, EC50 [3]: 16 nM | U266B1, SC225-conjugated 2° antibody cell killing, Span [3]: 2%

B3: SRP2291-F10 (antibody, IgG1, V domains shown)
VH: EVQLVESGGGLVQPGGSLRLSCAASGFNIDPYTIHWVRQAPGKGLEWVGWISPYDGYTEYADSVKGRFTISADTSKNTAYLQMNSLRAEDTAVYYCARDYYDRYSTYVLDYWGRGTLVTVSS
VL: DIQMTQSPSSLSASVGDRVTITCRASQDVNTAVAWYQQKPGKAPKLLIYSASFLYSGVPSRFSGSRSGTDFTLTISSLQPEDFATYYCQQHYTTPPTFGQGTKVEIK
notes: IgG1 with trastuzumab light chain, His/FLAG-tagged, cell-free expressed; also called Antibody 27
Bmax (MFI) [1]: 33800 MFI | Bmax (MFI) [2]: 66500 MFI | U266B1, SC225-conjugated 2° antibody cell killing, EC50 [3]: 46 nM | U266B1, SC225-conjugated 2° antibody cell killing, Span [3]: 1%

B4: SRP2291-G05 (antibody, IgG1, V domains shown)
VH: EVQLVESGGGLVQPGGSLRLSCAASGFNIAAYTIHWVRQAPGKGLEWVGWISPYGGYTEYADSVKGRFTISADTSKNTAYLQMNSLRAEDTAVYYCARDFHDRYATFVLDYWGQGTLVTVSS
VL: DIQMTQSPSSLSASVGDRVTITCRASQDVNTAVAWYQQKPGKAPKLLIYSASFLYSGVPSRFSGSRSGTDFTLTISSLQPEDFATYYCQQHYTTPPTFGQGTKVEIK
notes: IgG1 with trastuzumab light chain, His/FLAG-tagged, cell-free expressed; also called Antibody 24
Bmax (MFI) [1]: 23200 MFI | Bmax (MFI) [2]: 62700 MFI | U266B1, SC225-conjugated 2° antibody cell killing, EC50 [3]: 20 nM | U266B1, SC225-conjugated 2° antibody cell killing, Span [3]: 0.8%

B5: SRP2291-A01 (antibody, IgG1, V domains shown)
VH: EVQLVESGGGLVQPGGSLRLSCAASGFNIDPYTIHWARQAPGKGLEWVAHISPYDGYTDYADSVKGRFTISADTSKNTAYLQMNSLRAEDTAVYYCARDFYDRYSTYVLDYWGQGTLVTVSS
VL: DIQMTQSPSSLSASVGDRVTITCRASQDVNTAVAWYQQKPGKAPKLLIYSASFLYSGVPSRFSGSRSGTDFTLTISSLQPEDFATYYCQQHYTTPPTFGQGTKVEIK
notes: IgG1 with trastuzumab light chain, His/FLAG-tagged, cell-free expressed; also called Antibody 29
Bmax (MFI) [1]: 32500 MFI | Bmax (MFI) [2]: 67200 MFI | U266B1, SC225-conjugated 2° antibody cell killing, EC50 [3]: 58 nM | U266B1, SC225-conjugated 2° antibody cell killing, Span [3]: 1.1%

B6: SRP2290-A02 (antibody, IgG1, V domains shown)
VH: EVQLVESGGGLVQPGGSLRLSCAASGFNISTRWIHWVRQAPGKGLEWVGVITPSAGYTHYADSVKGRFTISAGTSKNTAYLQMNSLRAEDTAVYYCARDLGSRYWVGVFDYWGQGTLVTVSS
VL: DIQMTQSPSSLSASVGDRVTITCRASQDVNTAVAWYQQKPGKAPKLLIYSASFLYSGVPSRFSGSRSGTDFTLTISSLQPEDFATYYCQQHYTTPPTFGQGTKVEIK
notes: IgG1 with trastuzumab light chain, His/FLAG-tagged, cell-free expressed; also called Antibody 22
Bmax (MFI) [1]: 33600 MFI | Bmax (MFI) [2]: 70300 MFI | U266B1, SC225-conjugated 2° antibody cell killing, EC50 [3]: 1.6 nM | U266B1, SC225-conjugated 2° antibody cell killing, Span [3]: 70%

B7: SRP2290-D05 (antibody, IgG1, V domains shown)
VH: EVQLVESGGGLVQPGGSLRLSCAASGFNIASRWIHWVRQAPGKGLEWVGVITPSAGYTYYADSVKGRFTISADTSKNTAYLQMNSLRAEDTAVYYCARDLGYGYWVGFSDYWGQGTLVTVSS
VL: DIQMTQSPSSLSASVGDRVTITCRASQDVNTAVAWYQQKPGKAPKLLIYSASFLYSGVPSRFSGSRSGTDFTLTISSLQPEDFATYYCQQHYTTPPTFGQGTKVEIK
notes: IgG1 with trastuzumab light chain, His/FLAG-tagged, cell-free expressed; also called Antibody 20
Bmax (MFI) [1]: 21800 MFI | Bmax (MFI) [2]: 57600 MFI | U266B1, SC225-conjugated 2° antibody cell killing, EC50 [3]: 0.96 nM | U266B1, SC225-conjugated 2° antibody cell killing, Span [3]: 50%

B8: SRP2290-C08 (antibody, IgG1, V domains shown)
VH: EVQLVESGGGLVQPGGSLRLSCAASGFNIQPYWIHWVRQAPGKGLEWVGVITPPSGYTYYADSVKGRFTISADTSKNTAYLQMNSLRAEDTAVYYCARDWGVGYWVGFSDYWGQGTLVTVSS
VL: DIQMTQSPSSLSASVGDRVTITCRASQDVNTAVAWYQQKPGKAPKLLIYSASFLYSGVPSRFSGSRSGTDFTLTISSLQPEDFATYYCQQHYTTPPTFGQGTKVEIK
notes: IgG1 with trastuzumab light chain, His/FLAG-tagged, cell-free expressed; also called Antibody 21
Bmax (MFI) [1]: 37800 MFI | Bmax (MFI) [2]: 71000 MFI | U266B1, SC225-conjugated 2° antibody cell killing, EC50 [3]: 1.1 nM | U266B1, SC225-conjugated 2° antibody cell killing, Span [3]: 73%

B9: SRP2290-D02 (antibody, IgG1, V domains shown)
VH: EVQLVESGGGLVQPGGSLRLSCAASGFNISSYWIHWVRQAPGKGLEWMGVITPAAGYTYYADSVKGRFTISADTSKNTAYLQMNSLRAEDTAVYYCARDLGHRYWVGVFDYWGQGTLVTVSS
VL: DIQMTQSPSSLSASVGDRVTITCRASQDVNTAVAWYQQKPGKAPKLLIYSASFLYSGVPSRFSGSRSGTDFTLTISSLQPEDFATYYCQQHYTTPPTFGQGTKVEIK
notes: IgG1 with trastuzumab light chain, His/FLAG-tagged, cell-free expressed; also called Antibody 18
Bmax (MFI) [1]: 33600 MFI | Bmax (MFI) [2]: 75800 MFI | U266B1, SC225-conjugated 2° antibody cell killing, EC50 [3]: 1.4 nM | U266B1, SC225-conjugated 2° antibody cell killing, Span [3]: 60%
